From the nanobody polyreactivity screen of Harvey et al. (2022)

Assay: yeast display, Sf9 membrane polyspecificity reagent, FACS + sequencing; frameworks hold sequencing errors
Summary of the method: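 Galactose induction of a Saccharomyces cerevisiae BJ5465 synthetic nanobody display library ran 36–48 hours. The cells were then stained for 1 hour at 4 °C with 10% biotinylated, detergent-solubilized Sf9 membrane reagent, pulled down on streptavidin microbeads and FACS-sorted into low and high (top ~1%) gates on expression and reagent-binding fluorescence. Labels for polyreactivity follow the gate of origin.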

Sequence | polyreactivity (PSR sort gate)
QVQLVESGGGLVQAGGSLRLSCAASGRIFERNAMGWYRQAPGKERELVAAITYNGGRTYYADSVKGRFTISRDNAKNTVYLQMNSLKPEDTAVYYCNAQSRVTRSSYRGSPRYDYWGQGTQVTVSS | low polyreactivity
QVQLVESGGGLVQAGGSLRLSCAASGRIFERNAMGWYRQAPGKERELVARITSGGGTYYADSVKGRFTISRDNAKNSVYLQMNSLKPEDTAVYYCAVQYLYRKYRRYDYWGQGTQVTVSS | high polyreactivity
QVQLVESGGGLVQAGGSLRLSCAASGRIFERYAMGWYRQEPGKERELVAGISISGGGTYYADSVKGRFTISRDNAKNTVYLQMNSLKPEDTAVYYCAGTFPREEYGYWGQGTQVTVSS | low polyreactivity
QVQLVESGGGLVQAGGSLRLSCAASGRIFERYPMGWYRQAPGKERELVAGISISGGGTYYADSVKGRFTISRDTAKNTVYLQRNSLKPEDTAVSYCAATFPREEYGYWGQGTLVTVSS | low polyreactivity
QVQLVESGGGLVQAGGSLRLSCAASGRIFESYAMGWYRQAPGKERELVAAISSGGGTTYYADSVKGRFTISRDNAKNTVYLQMNSLKPEDTAVYYCAADALSDEYDYWGQGTQVTVSS | low polyreactivity
QVQLVESGGGLVQAGGSLRLSCAASGRIFEVYAMGWYRQAPGKERELVAAIRSGGNTYYADSVKGRFTISRDNAKNTVYLQMISLKPEDTAVYYCAARYKPPFGGYTYYYWGQGTQVTVSS | high polyreactivity
QVQLVESGGGLVQAGGSLRLSCAASGRIFEVYAMGWYRQAPGKERELVAAITSSGGSRTYYADSVKGRFTISRDNAKNTVYLQMNSLKPEDTAVYYCAASTHRGRYKRYDYWGQGTQVTVSS | high polyreactivity
QVQLVESGGGLVQAGGSLRLSCAASGRIFFAYAMGWYRQAPGKERELVAAIRFSGGTTYYADSVKGRLTFSRDNAKNTVYLQMNSLKQEDTAVYYFAAGRRRSSSGYGYWGKGTQVTVSS | high polyreactivity
QVQLVESGGGLVQAGGSLRLSCAASGRIFFFYAMGWYRQAPGKERELVATITWTDGSTDYADSVKGRFTISRDNAKNTVYLQMNSLKPEDTAVYYCAKDEYVSRYDYWGQGTQVTVSS | low polyreactivity
QVQLVESGGGLVQAGGSLRLSCAASGRIFFIYAMGWYRPAPGKERELVAAISSSGGTTYYADSVKGRFTISRDNAKNTVYLQMNSLKPEDTAVYYCAARSAATHWTFLFYYDFDYWGQGSQVTVSS | low polyreactivity
QVQLVESGGGLVQAGGSLRLSCAASGRIFFKNAMGWYRQAPGKDRELVAAISWSGGRTYYADSVKGRFTISRDNAKNTVYLQMNSLKPEDSAVYYCATRYHVGKYLYGYWGQGTQVTVSS | high polyreactivity
QVQLVESGGGLVQAGGSLRLSCAASGRIFFKNAMGWYRQAPGKERELVAGISWSGGRTYYADSVKGRFTISRDNAKNTVYLQMNSLKPEDTAVYYCNAGSSFYRSLRYEYWGQGTQVTVSS | high polyreactivity
QVQLVESGGGLVQAGGSLRLSCAASGRIFFPYAMGWYRQAPGKEREFVAAITTGCGSTYYADSVKGRFTISRDNAKNTVYLQMNSLKPEDTAVYYCAKRTYSRKFRGAYNYWGQGTQVTVSS | high polyreactivity
QVQLVESGGGLVQAGGSLRLSCAASGRIFFPYDMGWYRQAPGKERELVAAITNSGGRTYYADSVKGRFTISRDNAKNTVYLQMNSLKPEDTAVYYCNADAYEFRWVKHYDYWGQGTQVTVSS | low polyreactivity
QVQLVESGGGLVQAGGSLRLSCAASGRIFFRYAMGWYRQAPGKERELVASIRFRGGSTYYADSVKGRFTISRDNAKNTVYLQLNSLKPVDTAVYYCATPGSFTGTQRTGDYWGQGTQVTVSS | high polyreactivity
QVQLVESGGGLVQAGGSLRLSCAASGRIFFSYAMGWYRQAPGKERELVAAINGRGGSTYYADSVKGRFTISRDNAKNTVYLQMNSLKPEDTAVYYCAATAFSKGSSWKPYYYWGQGTQVTVSS | low polyreactivity
QVQLVESGGGLVQAGGSLRLSCAASGRIFFVNAMGWYRQAPGKERELVAAISWSGGNTNYADSVKGRFTISRDNAKNTVYLQMNSLKPEDTAVYYCAADNSVGEYQRVDYDYWGQGTQVSVSS | low polyreactivity
QVQLVESGGGLVQAGGSLRLSCAASGRIFFVNTMGWYRQAPVKERELVATISCSGGSTYYADSVKGRFTISRDNAKNTVYLQMNTLKPEDTAVYYCNRSLTGYDELGYPVPYTYDYWGQGTQVTVSS | low polyreactivity
QVQLVESGGGLVQAGGSLRLSCAASGRIFFWYAMGWYRQAPGTERELVAGITSGGSTNYADSVKGRFTISRDNAKNTVYLQMNSLKPEDTAVYYCAKRSYRTHTYDYWGQGTQVTVSS | low polyreactivity
QVQLVESGGGLVQAGGSLRLSCAASGRIFFYNAMGWYRQAPGKERELVAGISRSGTSTYYADSVKGRFTISRDNAKNTVYLQMNSLKPEDTAVYYCAADAWSVILWREMDYWGQGTQVTVSS | low polyreactivity
QVQLVESGGGLVQAGGSLRLSCAASGRIFFYYAMGWYRQAPGKERELVATISYSGGGTYYADSVKGRFTISRDNAKNTVYLQMNSLKPEDTAVYYCNARWGTPYYIQDFDYWGQGTQVTVSS | low polyreactivity
QVQLVESGGGLVQAGGSLRLSCAASGRIFFYYVMGWYRQAPGKERELVAAITRSGGSTYYADSVKGRFTISRDNAKNTVYLQMNSLKPEDTAVYYCSVGDGFEYDWGQGTQVTVSS | low polyreactivity

Sequence | polyreactivity (PSR sort gate)
QVQLVESGGGLVQAGGSLRLSCAASGRIFGAYAMGWYRQAPGKERELVAAINRGGSTNYADSVKGRFTISRDNAKNTVYLQMNSLKPEDTAVYYCAKRSSGRHFTYDYWGQGTQVTVSS | low polyreactivity
QVQLVESGGGLVQAGGSLRLSCAASGRIFGAYAMGWYRQAPGKERELVAAITSGGSTYYADSVKGRFTISRDNAKNTVYLQMNSLKPEDTAVYYCNALRRSQPWKYDYWGQGTQVTVSS | low polyreactivity
QVQLVESGGGLVQAGGSLRLSCAASGRIFGAYAMGWYRQAPGKERELVAAITSRGGNTYYADSVKGRFTISRDNAKNTVFLQMNSLKPEDTAVYYCAARHDTRRQYYVGQSAFDYWGQGTQVTVSS | low polyreactivity
QVQLVESGGGLVQAGGSLRLSCAASGRIFGAYAMGWYRQARGKERELVAAIDIRGGNTYYADSVKGRFTISRDNAKNTVYLQMNSLKPEDTAVYYCPADTWYDAYNYWGQGTQVTVSS | low polyreactivity
QVQLVESGGGLVQAGGSLRLSCAASGRIFGDNAMGWYRQAPGKERELVAAITNRGGTTYYADSVKGRFTISRDNAKNTVYLQMNSLRPEDTAVYYCNKTPDRHRRYFGYGYWGQGTQVTVSS | low polyreactivity
QVQLVESGGGLVQAGGSLRLSCAASGRIFGDNAMGWYRQAPGKERELVAGIRWRADRTYYADSVKGRFTISRDNAKNTVYLQMNSLKPEDTAVYYCNADVVRYRHWHRGDYWGQGTQVTVSS | low polyreactivity
QVQLVESGGGLVQAGGSLRLSCAASGRIFGDYAMGWYRQAPGKERELVARITWSGTGTYYADSVKGRFTISRDNAKNTVYLQMNSLKPEDTAVYYCNADWQVQWYYYWGHGTQVTVSS | low polyreactivity
QVQLVESGGGLVQAGGSLRLSCAASGRIFGENAMGGYRQAPGKEREFVAVISISDASTYYADSVKGRFTISRDNAKNTVYLQMNSLKPEDTAVYYCAADLTDFLYVASDYWGQGTQVTVSS | low polyreactivity
QVQLVESGGGLVQAGGSLRLSCAASGRIFGENAMGWYRQAPGKERELVAAINSGGSTSYADSVKGRFTISRDNAKNTVYLQMNSLKPEDTAVYYCAADEIQGFYTHSFEYWGQGTQVTVSS | low polyreactivity
QVQLVESGGGLVQAGGSLRLSCAASGRIFGFNALGWYRQAPGKEREFVAAMSGNGGSTYYADSVKGRFTISRDTAKNTVYLPMLSLNPEDTADYYSAASVHATYFSGARHWVKLYDWRQGTQVTVSS | high polyreactivity
QVQLVESGGGLVQAGGSLRLSCAASGRIFGFNAMGWYRQAPGKERELVAGITDSSGRTNYADSVKGRFTISRDNAKNTVYLQMNSLKPEDTAVYYCAKASAYGLANDYDYWGQGTQVTVSS | low polyreactivity
QVQLVESGGGLVQAGGSLRLSCAASGRIFGFNTMGWYRQAPGKERELVAAISRNGGSTYYADSVKGRFTISRDNAKNTVYLEMNSLKPEDTAVYYCAKRWYPYSYDYWGQGTQVTVSS | high polyreactivity
QVQLVESGGGLVQAGGSLRLSCAASGRIFGFYAMGWYRQAPGKERELVAAITNGGSTYYADSVKGRFTISRDNAKNTVDLQMNSLKPEDTAVYYCNKGRQAHLHITMDYWGQGTQVTLSS | low polyreactivity
QVQLVESGGGLVQAGGSLRLSCAASGRIFGFYTMGWYRQAPGKERELVAGISRGGSTYYADSVKGRFTISRDNAKNTGYVQMNSLNPEDTAVYDCAADLGWGYEYWGQGTQVTVSS | low polyreactivity
QVQLVESGGGLVQAGGSLRLSCAASGRIFGGNAMGWYRQAPGKERELVAAISQRGGSTSYADSVKGRFTISRDNAKNTVYLQMNSLKPEDTAVYYCAATWGYLRGSTKFYYWGQGTQVTVSS | high polyreactivity
QVQLVESGGGLVQAGGSLRLSCAASGRIFGGNAMGWYRQAPGKERELVAAITWGGSTNYADSVKGRFTISRDNAKNTVYLQMNRLKPEDTAVYYCNADPVRDTYWHPETQQWYGYWGQGTQVTVSS | low polyreactivity
QVQLVESGGGLVQAGGSLRLSCAASGRIFGGYAMGWYRQAPGKERELVAVITDGGSTNYADSVKGRFTISRDNAKNTVYLQMNSLKPEDTAVYYCAADSDGDEPPYDYWGQGTQVTVSS | low polyreactivity
QVQLVESGGGLVQAGGSLRLSCAASGRIFGGYARGWYRQAPGKERELVAVINGGTSTKYADSVKGRFTISRDNAKNTVYLQMNSLKPEDTAVYYCAKTRHDSLQNRNRYDYWGQGTQVTVSS | low polyreactivity
QVQLVESGGGLVQAGGSLRLSCAASGRIFGGYTMGWSRPAPGKERELVAAITGSGGRTYYADSVKGRFTISRDNAKNTVYLQMNSLQPEDTAVYYCNTVYRYLYSWGQGTQVTVSS | high polyreactivity
QVQLVESGGGLVQAGGSLRLSCAASGRIFGGYTMGWYRQAPGKERELVASINSGGSTAYADSVKGRFTISRDNAKNTVYLQMNSLKPEDTAVYYCAKRYAQTYSVSRYYYWGQGTQVTVSS | high polyreactivity
QVQLVESGGGLVQAGGSLRLSCAASGRIFGHNAMGWYRQAPGKERELVARISSTGSTKYADSVKGRFTISRDNAKNTVYLQMNSLKPEDTAVYYCAAYIIRWKGSSYYWGQGTQVTVSS | high polyreactivity
